Results on four molecules are retold here after US7098025B1, “Human peroxisome proliferator activated receptor gamma (pparγ) gene regulatory sequences and uses therefor” (Ligand Pharmaceuticals Incorporated, priority 1997, dated 2006).

For one data set, the target named is T1, PPARγ (Oryctolagus cuniculus, UniProt O19052).
T1 construct: endogenous in cells; host or cells: RK-13 (rabbit kidney, ATCC)
T1 sequence (O19052 1-475): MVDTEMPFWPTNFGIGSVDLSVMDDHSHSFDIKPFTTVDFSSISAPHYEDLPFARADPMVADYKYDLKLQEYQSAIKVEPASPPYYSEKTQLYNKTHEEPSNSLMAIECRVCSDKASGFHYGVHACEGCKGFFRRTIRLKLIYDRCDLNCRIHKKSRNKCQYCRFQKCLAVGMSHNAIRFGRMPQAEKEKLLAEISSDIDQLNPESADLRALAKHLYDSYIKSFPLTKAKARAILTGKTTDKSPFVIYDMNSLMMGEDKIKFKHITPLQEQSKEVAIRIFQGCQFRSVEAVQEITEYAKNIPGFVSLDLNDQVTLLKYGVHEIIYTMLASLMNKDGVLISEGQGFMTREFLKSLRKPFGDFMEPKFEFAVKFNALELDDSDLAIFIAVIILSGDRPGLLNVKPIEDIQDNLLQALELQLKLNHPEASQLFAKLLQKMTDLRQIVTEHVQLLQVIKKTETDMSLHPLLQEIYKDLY
Briefly: J3-TK-LUC PPRE-driven luciferase reporter in RK-13 cells. The data set is classed as cell-based, rabbit. As to the method:
Next we wanted to assess whether the above-mentioned changes in PPARγ expression were associated with changes in the capabilities of PPARγ to transactivate. A PPRE-driven luciferase reporter gene, containing three copies of the apo A-II J site (Vu-Dac et al., 1995), ie. J3-TK-LUC, was transfected into rabbit kidney-derived RK-13 cells and half of the cells were maintained in cholesterol-depleted medium whereas the other half was grown in the same medium supplemented with a mixture of cholesterol and 25-hydroxycholesterol.
Site-directed mutagenesis of the E-box in the PPARγ3 promoter was performed by splicing overlapping ends polymerase chain reaction (Ho, et al., Gene 77:51–59 (1989)), using the oligo pairs LF-106/LF-60 and LF-107/LF-68, to generate the plasmid pGL3γ3p800-E-boxmut. This changed the three bases underlined in the sequence 5′-[…]-3′ to 5′-[…]-3′ (SEQ ID NOS: 41 and 42, respectively. The J3-TK-LUC (Vu-Dac et al., 1995) and ACO-TK-LUC (Osumi et al., Biophys. Res. Commun. 175:866–871 (1991)) luciferase reporter vectors and the expression vectors encoding for ADD-1, a dominant negative form of ADD-1, and SREBP-1a (Tontonoz et al., Mol. Cell. Biol. 13:4753–4759 (1993)); Yokoyama et al., Cell 75:187–197 (1993)) were described before. […]

The subject of another data set is PPARγ mRNA. In words: RNase protection assay of PPARγ mRNA in retrovirally infected 3T3-L1 cells. In kind it is cell-based, mouse. The settings on record: 3T3-L1 preadipocytes and adipocytes; retroviral ectopic expression. The protocol: To study the effects of ADD-1 on PPARγ expression in more detail, either an empty retroviral vector pBabe or the same vector encoding for full length ADD-1 or the superactive ADD-1-403 form were introduced into 3T3-L1 cells via retroviral infection. […] Infected cells were then cultured to confluence and consecutively treated with differentiation medium. Total RNA was isolated at confluence (preadipocytes) and at day 6 after confluence (adipocytes) from the cells expressing either the empty pBabe vector or the same vector encoding for ADD-1 or ADD-1-403, a truncated form of ADD-1, equivalent to the proteolytically activated protein, which lacks the membrane anchoring domain. […] The effect of retroviral infection was more pronounced in 3T3-L1 adipocytes relative to preadipocytes.
Control cells received vehicle only.
The absolute mRNA concentration of the differentially spliced PPARγ variants was measured by RNase protection assay exactly as described (Lemberger et al., J. Biol. Chem. 271:1764–1769 (1995)). The full lenght PPARγ2 coding region plus 33 bp of the 5′ UTR was amplified from human adipose tissue RNA by RT-PCR with the primer pair LF-3/LF-36 and was inserted in the inverted orientation (3′ to 5′ in front of the T7 promoter) into the EcoRI site of the expression vector pSG5 (Stratagene, La Jolla, Calif.). […]

For a further data set, the target named is T2, ADD-1 (UniProt P56720-1 P56720-1:1-1110).
T2 sequence: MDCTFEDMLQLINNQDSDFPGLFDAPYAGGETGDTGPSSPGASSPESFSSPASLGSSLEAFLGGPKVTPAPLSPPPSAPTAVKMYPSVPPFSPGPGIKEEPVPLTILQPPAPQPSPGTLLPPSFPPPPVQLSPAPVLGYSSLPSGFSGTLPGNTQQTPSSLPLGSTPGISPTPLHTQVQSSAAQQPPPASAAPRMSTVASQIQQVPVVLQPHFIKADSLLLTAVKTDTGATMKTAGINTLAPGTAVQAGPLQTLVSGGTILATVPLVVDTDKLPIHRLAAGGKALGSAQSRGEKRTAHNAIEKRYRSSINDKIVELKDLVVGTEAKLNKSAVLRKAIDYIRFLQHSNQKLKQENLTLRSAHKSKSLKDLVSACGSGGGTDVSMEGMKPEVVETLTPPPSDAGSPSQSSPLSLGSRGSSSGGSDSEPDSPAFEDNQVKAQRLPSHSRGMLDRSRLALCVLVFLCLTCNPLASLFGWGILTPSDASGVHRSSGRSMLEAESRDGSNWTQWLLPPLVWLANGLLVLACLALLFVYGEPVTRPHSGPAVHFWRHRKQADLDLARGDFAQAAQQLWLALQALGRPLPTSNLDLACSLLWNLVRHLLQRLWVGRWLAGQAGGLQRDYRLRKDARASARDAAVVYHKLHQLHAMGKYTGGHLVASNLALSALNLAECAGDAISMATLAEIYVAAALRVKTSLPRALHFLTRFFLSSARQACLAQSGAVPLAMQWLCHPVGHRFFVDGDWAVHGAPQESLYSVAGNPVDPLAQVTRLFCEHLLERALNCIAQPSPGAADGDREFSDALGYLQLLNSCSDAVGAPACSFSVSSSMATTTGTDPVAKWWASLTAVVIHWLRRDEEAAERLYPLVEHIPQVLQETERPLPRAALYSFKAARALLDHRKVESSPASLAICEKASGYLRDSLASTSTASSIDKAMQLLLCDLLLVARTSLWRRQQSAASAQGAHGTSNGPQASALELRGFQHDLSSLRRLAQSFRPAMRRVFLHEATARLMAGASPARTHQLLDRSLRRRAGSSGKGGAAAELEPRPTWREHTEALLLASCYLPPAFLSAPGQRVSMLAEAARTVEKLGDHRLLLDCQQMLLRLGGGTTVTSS
Briefly: cell_activity; pGL3gamma3p800 luciferase reporter, Hep G2. The settings on record: tags: expression vector, Hep G2 cells.

In data set [1] the target is T3, hPPARγ2, in vitro transcribed/translated protein (human, UniProt P37231 1-505).
T3 construct: PPARγ2 isoform, with the additional N-terminal amino acids encoded by exon B; also called human PPARγ2
T3 sequence (looked up): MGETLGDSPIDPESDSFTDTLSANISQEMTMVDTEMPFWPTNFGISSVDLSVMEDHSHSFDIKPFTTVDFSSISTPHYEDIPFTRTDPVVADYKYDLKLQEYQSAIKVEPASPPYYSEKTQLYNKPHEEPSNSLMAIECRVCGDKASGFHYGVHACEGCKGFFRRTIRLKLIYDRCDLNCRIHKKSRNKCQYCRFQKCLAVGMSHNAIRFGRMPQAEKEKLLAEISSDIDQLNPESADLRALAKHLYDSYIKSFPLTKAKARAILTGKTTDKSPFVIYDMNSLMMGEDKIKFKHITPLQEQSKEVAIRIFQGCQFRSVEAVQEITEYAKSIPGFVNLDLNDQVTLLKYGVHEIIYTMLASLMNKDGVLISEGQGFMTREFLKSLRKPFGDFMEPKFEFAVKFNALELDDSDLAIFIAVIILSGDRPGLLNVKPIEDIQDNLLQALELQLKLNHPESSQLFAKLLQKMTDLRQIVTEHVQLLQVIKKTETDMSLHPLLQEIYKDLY
In words: EMSA with in vitro translated proteins on the apoA-II J site PPRE oligonucleotide; heterodimer complex on DNA. As to the method:
To analyze whether PPARγ could bind to a PPRE, classically composed of direct repeats spaced by one intervening nucleotide (DR-1), EMSA was performed using in vitro transcribed/translated PPARγ2 protein. An oligonucleotide containing a high affinity PPRE, previously identified in the apoA-II promoter J site, was used in EMSA (29).
7. Electrophoretic Mobility Shift Assays (EMSA) and Oligonucleotide Sequences haPPARγ (39), hPPARγ2, and mRXRα (40) proteins were synthesized in vitro in rabbit reticulocyte lysate (Promega). Molecular weights and quality of the in vitro translated proteins were verified by SDS-PAGE. PPAR (2 μl) and/or RXR (2 μl) were incubated for 15 min on ice in a total volume of 20 μl with 1-ng probe, 2.5 μg of poly(dI-dC) and 1 μg of herring sperm DNA in binding buffer (10 mM Tris-HCl pH 7.9, 40 mMKCl, 10% glycerol, 0.05% Nonidet P-40, and 1 mM dithiothreitol). For competition experiments, increasing amounts (from 10- to 200-fold molar excess) of cold oligonucleotide (AII-J-PPRE, 5'-[…]-3' (41) SEQ ID NO: 24; acyl-CoA oxidase (ACO)-PPRE, 5'-[…]-3' (42) SEQ ID NO: 25; or LPL-PPRE, 5'-[…]-3 (23) SEQ ID NO: 26; were included just before adding T4-PNK end-labeled AII-J-PPRE oligonucleotide. DNA-protein complexes were separated by electrophoresis on a 4% polyacrylamide gel in 0.25×TBE buffer at 4° C. (43).

Text for ADD-1: To assess whether ADD-1 regulates the expression of the hPPARγ3 mRNA, we cotransfected either an expression plasmid coding for ADD-1 together with the pGL3γ3p800 luciferase reporter vector.

Take `CN(CCOc1ccc(CC2SC(=O)NC2=O)cc1)c1ccccn1` (centres unmarked) [BRL 49,653]: the “J3-TK-LUC reporter activation under cholesterol depletion versus supplemented medium” value at PPARγ (cholesterol-depleted medium) is listed as “activated to a significantly higher level”. Besides, the “promoter activity of J3-TK-LUC reporter” value on PPARγ (increasing amounts of ligand, cholesterol-depleted or supplemented medium) was “dose-dependent activation”.

B1: ADD-1-403: truncated superactive form of ADD-1 lacking the membrane anchoring domain, equivalent to the proteolytically activated protein (protein, UniProt P56720 1-403, looked up, fragment)
chain: MDELPFGEAALEQALAEVCEMDAALLTDIEDMLQLINNQDSDFPGLFDAPYAGGETGDTGPSSPGASSPESFSSPASLGSSLEAFLGGPKVTPAPLSPPPSAPTAVKMYPSVPPFSPGPGIKEEPVPLTILQPPAPQPSPGTLLPPSFPPPPVQLSPAPVLGYSSLPSGFSGTLPGNTQQTPSSLPLGSTPGISPTPLHTQVQSSAAQQPPPASAAPRMSTVASQIQQVPVVLQPHFIKADSLLLTAVKTDTGATMKTAGINTLAPGTAVQAGPLQTLVSGGTILATVPLVVDTDKLPIHRLAAGGKALGSAQSRGEKRTAHNAIEKRYRSSINDKIVELKDLVVGTEAKLNKSAVLRKAIDYIRFLQHSNQKLKQENLTLRSAHKSKSLKDLVSACGSGGGT
With B1, the “expression of PPARγ mRNA” value with PPARγ mRNA is given as “significantly more active”.

B2: PPARgamma3 E-box (LF-102; core printed) (dsDNA)
DNA 1: ATTCATGTGACAT
DNA 2: ATGTCACATGAAT
Turning to B2, the activity in the data set with ADD-1 is at least 4 fold.

B3: mRXRα, in vitro translated protein (receptor, mouse, UniProt P28700 1-467, looked up)
chain: MDTKHFLPLDFSTQVNSSSLNSPTGRGSMAVPSLHPSLGPGIGSPLGSPGQLHSPISTLSSPINGMGPPFSVISSPMGPHSMSVPTTPTLGFGTGSPQLNSPMNPVSSTEDIKPPLGLNGVLKVPAHPSGNMASFTKHICAICGDRSSGKHYGVYSCEGCKGFFKRTVRKDLTYTCRDNKDCLIDKRQRNRCQYCRYQKCLAMGMKREAVQEERQRGKDRNENEVESTSSANEDMPVEKILEAELAVEPKTETYVEANMGLNPSSPNDPVTNICQAADKQLFTLVEWAKRIPHFSELPLDDQVILLRAGWNELLIASFSHRSIAVKDGILLATGLHVHRNSAHSAGVGAIFDRVLTELVSKMRDMQMDKTELGCLRAIVLFNPDSKGLSNPAEVEALREKVYASLEAYCKHKYPEQPGRFAKLLLRLPALRSIGLKCLEHLFFFKLIGDTPIDTFLMEMLEAPHQAT
notes: also called mouse retinoid X receptor alpha
As for B3, in data set [1], the binding result is “binds”.
